{"source": "the supplement of paper PMC11316812", "key": {"MCF7": {"system": "MCF7", "test": "percentage of EdU-negative (G0-arrested) nuclei per well, 72 h; higher = more G0 arrest", "conditions": "reference: sequence is the full UniProt precursor, the tested protein was the secreted form or ectodomain"}, "hTERT-HMEC": {"system": "hTERT-HMEC", "test": "percentage of EdU-negative (G0-arrested) nuclei per well, 72 h; higher = more G0 arrest", "conditions": "reference: sequence is the full UniProt precursor, the tested protein was the secreted form or ectodomain"}, "[1]": {"conditions": "protein concentration 0.023905 µM"}, "[2]": {"conditions": "protein concentration 0.23905 µM"}, "[3]": {"conditions": "protein concentration 0.0128525 µM"}, "[4]": {"conditions": "protein concentration 0.128525 µM"}, "[5]": {"conditions": "protein concentration 0.00828571 µM"}, "[6]": {"conditions": "protein concentration 0.0828571 µM"}, "[7]": {"conditions": "protein concentration 0.03125 µM"}, "[8]": {"conditions": "protein concentration 0.3125 µM"}, "[9]": {"conditions": "protein concentration 0.0277143 µM"}, "[10]": {"conditions": "protein concentration 0.277143 µM"}}, "note": "± gives the standard deviation of the averaged measurements.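 Further: secreted proteins added to cultured cells, EdU pulse at the end, nuclei found by Hoechst imaging, EdU status from nuclear versus surrounding ring intensity ratio, PBS as neutral control.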", "data": [{"sequence": "MAPRRARGCRTLGLPALLLLLLLRPPATRGITCPPPMSVEHADIWVKSYSLYSRERYICNSGFKRKAGTSSLTECVLNKATNVAHWTTPSLKCIRDPALVHQRPAPPSTVTTAGVTPQPESLSPSGKEPAASSPSSNNTAATTAAIVPGSQLMPSKSPSTGTTEISSHESSHGTPSQTTAKNWELTASASHQPPGVYPQGHSDTTVAISTSTVLLCGLSAVSLLACYLKSRQTPPLASVEMEAMEALPVTWGTSSRDEDLENCSHHL", "values": [{"measurement": "percentage of EdU-negative", "setting": "MCF7; [1]", "result": "27.1 ± 0.76", "unit": "%"}, {"measurement": "percentage of EdU-negative", "setting": "MCF7; [2]", "result": "25.6 ± 2.6", "unit": "%"}, {"measurement": "percentage of EdU-negative", "setting": "hTERT-HMEC; [1]", "result": "5.18 ± 0.25", "unit": "%"}, {"measurement": "percentage of EdU-negative", "setting": "hTERT-HMEC; [2]", "result": "6.6 ± 0.68", "unit": "%"}]}, {"sequence": "MAPRRVRSFLRGLPALLLLLLFLGPWPAASHGGKYSREKNQPKPSPKRESGEEFRMEKLNQLWEKAQRLHLPPVRLAELHADLKIQERDELAWKKLKLDGLDEDGEKEARLIRNLNVILAKYGLDGKKDARQVTSNSLSGTQEDGLDDPRLEKLWHKAKTSGKFSGEELDKLWREFLHHKEKVHEYNVLLETLSRTEEIHENVISPSDLSDIKGSVLHSRHTELKEKLRSINQGLDRLRRVSHQGYSTEAEFEEPRVIDLWDLAQSANLTDKELEAFREELKHFEAKIEKHNHYQKQLEIAHEKLRHAESVGDGERVSRSREKHALLEGRTKELGYTVKKHLQDLSGRISRARHNEL", "values": [{"measurement": "percentage of EdU-negative", "setting": "MCF7; [3]", "result": "24.3 ± 0.53", "unit": "%"}, {"measurement": "percentage of EdU-negative", "setting": "MCF7; [4]", "result": "26.4 ± 1.4", "unit": "%"}, {"measurement": "percentage of EdU-negative", "setting": "hTERT-HMEC; [3]", "result": "4.97 ± 0.51", "unit": "%"}, {"measurement": "percentage of EdU-negative", "setting": "hTERT-HMEC; [4]", "result": "6.45 ± 0.82", "unit": "%"}]}, {"sequence": "MAPRTLWSCYLCCLLTAAAGAASYPPRGFSLYTGSSGALSPGGPQAQIAPRPASRHRNWCAYVVTRTVSCVLEDGVETYVKYQPCAWGQPQCPQSIMYRRFLRPRYRVAYKTVTDMEWRCCQGYGGDDCAESPAPALGPASSTPRPLARPARPNLSGSSAGSPLSGLGGEGPGESEKVQQLEEQVQSLTKELQGLRGVLQGLSGRLAEDVQRAVETAFNGRQQPADAAARPGVHETLNEIQHQLQLLDTRVSTHDQELGHLNNHHGGSSSSGGSRAPAPASAPPGPSEELLRQLEQRLQESCSVCLAGLDGFRRQQQEDRERLRAMEKLLASVEERQRHLAGLAVGRRPPQECCSPELGRRLAELERRLDVVAGSVTVLSGRRGTELGGAAGQGGHPPGYTSLASRLSRLEDRFNSTLGPSEEQEESWPGAPGGLSHWLPAARGRLEQLGGLLANVSGELGGRLDLLEEQVAGAMQACGQLCSGAPGEQDSQVSEILSALERRVLDSEGQLRLVGSGLHTVEAAGEARQATLEGLQEVVGRLQDRVDAQDETAAEFTLRLNLTAARLGQLEGLLQAHGDEGCGACGGVQEELGRLRDGVERCSCPLLPPRGPGAGPGVGGPSRGPLDGFSVFGGSSGSALQALQGELSEVILSFSSLNDSLNELQTTVEGQGADLADLGATKDRIISEINRLQQEATEHATESEERFRGLEEGQAQAGQCPSLEGRLGRLEGVCERLDTVAGGLQGLREGLSRHVAGLWAGLRETNTTSQMQAALLEKLVGGQAGLGRRLGALNSSLQLLEDRLHQLSLKDLTGPAGEAGPPGPPGLQGPPGPAGPPGSPGKDGQEGPIGPPGPQGEQGVEGAPAAPVPQVAFSAALSLPRSEPGTVPFDRVLLNDGGYYDPETGVFTAPLAGRYLLSAVLTGHRHEKVEAVLSRSNQGVARVDSGGYEPEGLENKPVAESQPSPGTLGVFSLILPLQAGDTVCVDLVMGQLAHSEEPLTIFSGALLYGDPELEHA [A0A0C4DFX3]", "values": [{"measurement": "percentage of EdU-negative", "setting": "MCF7; [5]", "result": "26.3 ± 1.3", "unit": "%"}, {"measurement": "percentage of EdU-negative", "setting": "MCF7; [6]", "result": "30.4 ± 3.6", "unit": "%"}, {"measurement": "percentage of EdU-negative", "setting": "hTERT-HMEC; [5]", "result": "4.9 ± 0.43", "unit": "%"}, {"measurement": "percentage of EdU-negative", "setting": "hTERT-HMEC; [6]", "result": "4.36 ± 0.72", "unit": "%"}]}, {"sequence": "MAPSSPRPALPALLVLLGALFPGPGNAQTSVSPSKVILPRGGSVLVTCSTSCDQPKLLGIETPLPKKELLLPGNNRKVYELSNVQEDSQPMCYSNCPDGQSTAKTFLTVYWTPERVELAPLPSWQPVGKNLTLRCQVEGGAPRANLTVVLLRGEKELKREPAVGEPAEVTTTVLVRRDHHGANFSCRTELDLRPQGLELFENTSAPYQLQTFVLPATPPQLVSPRVLEVDTQGTVVCSLDGLFPVSEAQVHLALGDQRLNPTVTYGNDSFSAKASVSVTAEDEGTQRLTCAVILGNQSQETLQTVTIYSFPAPNVILTKPEVSEGTEVTVKCEAHPRAKVTLNGVPAQPLGPRAQLLLKATPEDNGRSFSCSATLEVAGQLIHKNQTRELRVLYGPRLDERDCPGNWTWPENSQQTPMCQAWGNPLPELKCLKDGTFPLPIGESVTVTRDLEGTYLCRARSTQGEVTRKVTVNVLSPRYEIVIITVVAAAVIMGTAGLSTYLYNRQRKIKKYRLQQAQKGTPMKPNTQATPP", "values": [{"measurement": "percentage of EdU-negative", "setting": "MCF7; [7]", "result": "24.7 ± 1.5", "unit": "%"}, {"measurement": "percentage of EdU-negative", "setting": "MCF7; [8]", "result": "24.2 ± 3.4", "unit": "%"}, {"measurement": "percentage of EdU-negative", "setting": "hTERT-HMEC; [7]", "result": "5 ± 0.26", "unit": "%"}, {"measurement": "percentage of EdU-negative", "setting": "hTERT-HMEC; [8]", "result": "5.68 ± 0.88", "unit": "%"}]}, {"sequence": "MAPVAVWAALAVGLELWAAAHALPAQVAFTPYAPEPGSTCRLREYYDQTAQMCCSKCSPGQHAKVFCTKTSDTVCDSCEDSTYTQLWNWVPECLSCGSRCSSDQVETQACTREQNRICTCRPGWYCALSKQEGCRLCAPLRKCRPGFGVARPGTETSDVVCKPCAPGTFSNTTSSTDICRPHQICNVVAIPGNASMDAVCTSTSPTRSMAPGAVHLPQPVSTRSQHTQPTPEPSTAPSTSFLLPMGPSPPAEGSTGDFALPVGLIVGVTALGLLIIGVVNCVIMTQVKKKPLCLQREAKVPHLPADKARGTQGPEQQHLLITAPSSSSSSLESSASALDRRAPTRNQPQAPGVEASGAGEARASTGSSDSSPGGHGTQVNVTCIVNVCSSSDHSSQCSSQASSTMGDTDSSPSESPKDEQVPFSKEECAFRSQLETPETLLGSTEEKPLPLGVPDAGMKPS", "values": [{"measurement": "percentage of EdU-negative", "setting": "MCF7; [9]", "result": "22.2 ± 1.9", "unit": "%"}, {"measurement": "percentage of EdU-negative", "setting": "MCF7; [10]", "result": "23.6 ± 1.1", "unit": "%"}, {"measurement": "percentage of EdU-negative", "setting": "hTERT-HMEC; [9]", "result": "5.56 ± 0.29", "unit": "%"}, {"measurement": "percentage of EdU-negative", "setting": "hTERT-HMEC; [10]", "result": "6.09 ± 1.2", "unit": "%"}]}]}
